Tests used:
[1] = test system: rat aortic smooth muscle cells; test: Mitogenic activity of blood coagulation factors on smooth muscle cells (3H-thymidine incorporation); assay type: cell-based, Wistar rats; details: 24 h
Description: Primary smooth muscle cell cultures were prepared from the thoracic and abdominal aorta of 2-3 month old Wistar rats essentially using the procedure of Reilly, C. […] After removing as much fat and adherent adventitia as possible with scissors and forceps, the tissue was finely minced, enzymatically dissociated with successive 37° C. incubations in HBSS containing collagenase (Sigma, 0.5 mg/ml for 15 min.), then elastase (Sigma, 0.125 mg/ml for 30 min.) and again collagenase (60 min.). […] Cells were grown in Dulbecco's Minimal Essential Medium (DMEM) containing 10% fetal bovine serum (FBS) with antibiotics. […] Using a monoclonal antibody to alpha actin (Sigma Chemical Company, St. Louis, Mo.), about 60-80% (preparation dependent) of these confluent cells stained positive for this smooth muscle cell marker. After 10 days in culture, the cells were dissociated with trypsinethylene diamine tetraacetate (EDTA), split 1:10 and subcultured in the above medium. At confluence the cells were transferred to DMEM containing 0.1 % FBS for a 24 hour period before using them for assay. All smooth muscle cells used in these studies were from passages 1-4.
The prepared rat smooth muscle cells were seeded in Falcon 24 multiwell plates (10^5 cells/well) and cultured at 37° C., in a 5% CO2 atmosphere in 1 ml DMEM containing 10% FBS. […] At the end of the incubation, the cultures were washed twice with DMEM and pulsed for two hours in ^3 H-thymidine (1 μCi/ml) in DMEM containing 0.1% BSA. The cells were washed twice with cold phosphate buffered saline (PBS), treated twice with 5% trichloroacetic acid (TCA) for 5 min., dissolved with 0.25N NaOH (0.4 ml) incubated at 37° C. for 60 min., mixed with 5 ml Ecolume (ICN Biomedicals, Costa Mesa, Calif.), and their radioactivity determined in a scintillation counter. All assays were in triplicate. Error bars represent the standard error of the mean (S.E.M. with n=6 or more experiments). Smooth muscle cell mitogenic activity produced by exogenous agents is expressed as % relative mitogenic activity which is defined as: [formula] […]

[2] = test system: rat aortic smooth muscle cells; test: Comparison of 3H-thymidine incorporation and cell proliferation in rat aortic smooth muscle cell cultures; assay type: cell-based; details: 10 mM factor, 36 hours treatment
Description: Rat smooth muscle cells were incubated with different blood coagulation factors to determine ^3 H-thymidine incorporation and effect cell number. […] At the end of the incubation, half of the groups were pulsed with ^3 H-thymidine for two hours while their identically treated counterparts were dissociated with trypsin and the cells (smooth muscle cells on the basis of a reddish-brown staining pattern with Masson's trichome) were counted. Although there was not a direct correspondence between the per cent increase in thymidine incorporation and cell number, the increase in DNA synthesis correlated well with an increase in cell number. bovine factor Xa increased cell proliferation in a dose dependent manner. 10 mM Protein S induced greater cell proliferation than 50 mM bovine factor Xa.

[3] = test system: human venous endothelial cells; test: Release of mitogens from endothelial cells stimulated with factor Xa; conditioned media tested for mitogenic activity on 3T3 cells; assay type: cell-based; details: for Mitogenic units of EC conditioned media: 1 unit = activity induced by 2 ng/ml PDGF, FXa 1 nM, ATS 5 nM, PDGF 2 ng/ml, 16 h
Description: Confluent primary cultures or subcultures (passages 1 and 2) of human venous endothelial cells (EC) were cultured in serum-free Dulbecco's Minimal Essential Medium (DMEM)+0.1% bovine serum albumin (BSA) in the presence of human or bovine factor Xa(1 nM) (Sigma Chemical Co., St. Louis, Mo.), antistasin (ATS) (0.5-5.0 nM), or both. Control cultures were untreated or received 2 ng/ml platelet-derived growth factor (PDGF) (Sigma Chemical Co., St. Louis, Mo.). After 16 hours incubation at 37° C., the conditioned media (CM) from the test and control cell cultures were collected and tested for mitogenic activity (MIT) using confluent NIH 3T3 cells (CCL 163, American Type Culture Collection, Rockville, Md.).
Primary cultures of EC derived from umbilical cord veins were prepared and grown according to a protocol provided to by Dr. Gwendolyn Stewart (Temple University Thrombosis Center, Phila., Pa.). After washing the lumen of the vein twice with DMEM, EC were dissociated with a solution containing 0.05% trypsin and 0.1% collagenase. Thirty minutes later, the venous content and the perfused DMEM (35 ml) was collected into a fifty ml centrifuge tube containing 3.5 ml of bovine serum and the mixture spun at 900 rpm for 10 minutes. The supernate was discarded and the cell pellet resuspended in 3.0 ml DMEM containing 20% fetal bovine serum (FBS) (heat inactivated at 56° C. for 30 minutes), 90 μg heparin per ml, 5 μg fibronectin per ml, and 60 μg endothelial growth factor per ml (cDMEM), and seeded into 35 mm tissue culture dishes. After 24 hours of incubation at 37 °C, 5% CO2, the culture was washed 3-4 times with DMEM and incubated 2-4 days until the cells were confluent. The monolayers were washed with phosphate buffered saline (PBS) and cultured in DMEM with 0.1% BSA in the presence and absence of 1 nM factor Xa, 5 nM antistasin, or a mixture of both. As positive and negative controls, separated monolayers were incubated with the medium plus 2 ng/ml PDGF or with the medium alone. After 16 hours of incubation at 37° C., conditioned media (CM) were collected, centrifuged at 4000×g for 10 minutes, and the supernate was collected and stored at 4° C. until use. The mitogenic activity of the CM was tested by measuring the incorporation of [^3 H] thymidine into cultures of Balb 3T3 cells. For this purpose, wells were seeded with 2×10^4 3T3 cells suspended in 1 ml DMEM with 10% FBS. Once confluent (5-7 days of culture), CM were added and cells incubated for 18 hours at 37° C. after which cultures were washed with warm DMEM, tritiated thymidine added (1 μCi/ml) and cells incubated for 4 hours at 37° C. After removing the medium, the culture was washed twice with cold 5% trichloroacetic acid (TCA), and lysed with 0.8 ml 0.25M NaOH. The lysate was transferred to vials with scintillation fluid and radioactivity monitored in a beta radiation counter.
One unit of mitogenic activity is defined as the mitogenic activity induced by 2 ng/ml PDGF. Each assay was performed in triplicate and the standard deviation was less than 10%.

[4] = test system: 3T3 cells; test: Direct antistasin treatment of 3T3 cells, proliferation; assay type: cell-based
[5] = test system: smooth muscle cells; test: Effect of antistasin and tick anticoagulant peptide on factor Xa induced mitogenesis of smooth muscle cells; assay type: cell-based, rat; details: FIG. 2
Description: Primary smooth muscle cell cultures were prepared from the thoracic and abdominal aorta of 2-3 month old Wistar rats essentially using the procedure of Reilly, C. F. (1990) J. Cell Physiol. 142,342 (1990). After removing as much fat and adherent adventitia as possible with scissors and forceps, the tissue was finely minced, enzymatically dissociated with successive 37° C. incubations in HBSS containing collagenase (Sigma, 0.5 mg/ml for 15 min.), then elastase (Sigma, 0.125 mg/ml for 30 min.) and again collagenase (60 min.). […] Cells were grown in Dulbecco's Minimal Essential Medium (DMEM) containing 10% fetal bovine serum (FBS) with antibiotics. […] Using a monoclonal antibody to alpha actin (Sigma Chemical Company, St. Louis, Mo.), about 60-80% (preparation dependent) of these confluent cells stained positive for this smooth muscle cell marker. After 10 days in culture, the cells were dissociated with trypsinethylene diamine tetraacetate (EDTA), split 1:10 and subcultured in the above medium. At confluence the cells were transferred to DMEM containing 0.1 % FBS for a 24 hour period before using them for assay. […]
(§1) The prepared rat smooth muscle cells were seeded in Falcon 24 multiwell plates (10^5 cells/well) and cultured at 37° C., in a 5% CO2 atmosphere in 1 ml DMEM containing 10% FBS. […] The cells were washed twice with cold phosphate buffered saline (PBS), treated twice with 5% trichloroacetic acid (TCA) for 5 min., dissolved with 0.25N NaOH (0.4 ml) incubated at 37° C. for 60 min., mixed with 5 ml Ecolume (ICN Biomedicals, Costa Mesa, Calif.), and their radioactivity determined in a scintillation counter. […] Smooth muscle cell mitogenic activity produced by exogenous agents is expressed as % relative mitogenic activity which is defined as: [formula] […]
The effects of antistasin and tick anticoagulant peptide on factor Xa induced mitogenesis of smooth muscle cells were tested using the method shown in Example 4. […] At the end of the 24 hour incubation, ^3 H-thymidine incorporation into DNA was monitored and smooth muscle cell mitogenic activity was assessed as described in Example 4.

[6] = test system: smooth muscle cells; test: Effect of factor Xa inhibitors on human protein S and bovine factor X induced smooth muscle cell mitogenesis; assay type: cell-based, rat; details: FIG. 3
Description: Primary smooth muscle cell cultures were prepared from the thoracic and abdominal aorta of 2-3 month old Wistar rats essentially using the procedure of Reilly, C. F. (1990) J. Cell Physiol. 142,342 (1990). After removing as much fat and adherent adventitia as possible with scissors and forceps, the tissue was finely minced, enzymatically dissociated with successive 37° C. incubations in HBSS containing collagenase (Sigma, 0.5 mg/ml for 15 min.), then elastase (Sigma, 0.125 mg/ml for 30 min.) and again collagenase (60 min.). […] Cells were grown in Dulbecco's Minimal Essential Medium (DMEM) containing 10% fetal bovine serum (FBS) with antibiotics. […]
as §1

[7] = FIG. 1, 10 nM coagulation factor

B1: platelet derived growth factor BB: recombinant platelet-derived growth factor-BB, a good mitogen for smooth muscle cells (protein, UniProt P01127 82-190, looked up)
Platelet-derived growth …: SLGSLTIAEPAMIAECKTRTEVFEISRRLIDRTNANFLVWPPCVEVQRCSGCCNNRNVQCRPTQVQLRPVQVRKIEIVRKKPIFKKATVTLEDHLACKCETVAAARPVT
modifications: homodimer
notes: recombinant platelet-derived growth factor-BB, a good mitogen for smooth muscle cells
- % relative mitogenic activity above control ([1]; FIG. 1, 0.1 nM PDGF-BB): about 63%

B2: protein S: human protein S, coagulation cascade factor (Enzyme Res. Labs) (protein, UniProt P07225 42-676, looked up)
Vitamin K-dependent protein S: ANSLLEETKQGNLERECIEELCNKEEAREVFENDPETDYFYPKYLVCLRSFQTGLFTAARQSTNAYPDLRSCVNAIPDQCSPLPCNEDGYMSCKDGKASFTCTCKPGWQGEKCEFDINECKDPSNINGGCSQICDNTPGSYHCSCKNGFVMLSNKKDCKDVDECSLKPSICGTAVCKNIPGDFECECPEGYRYNLKSKSCEDIDECSENMCAQLCVNYPGGYTCYCDGKKGFKLAQDQKSCEVVSVCLPLNLDTKYELLYLAEQFAGVVLYLKFRLPEISRFSAEFDFRTYDSEGVILYAESIDHSAWLLIALRGGKIEVQLKNEHTSKITTGGDVINNGLWNMVSVEELEHSISIKIAKEAVMDINKPGPLFKPENGLLETKVYFAGFPRKVESELIKPINPRLDGCIRSWNLMKQGASGIKEIIQEKQNKHCLVTVEKGSYYPGSGIAQFHIDYNNVSSAEGWHVNVTLNIRPSTGTGVMLALVSGNNTVPFAVSLVDSTSEKSQDILLSVENTVIYRIQALSLCSDQQSHLEFRVNRNNLELSTPLKIETISHEDLQRQLAVLDKAMKAKVATYLGGLPDVPFSATPVNAFYNGCMEVNINGVQLDLDEAISKHNDIRAHSCPSVWKKTKNS
- % relative mitogenic activity above control [1, 7]: about 122%
- SMC Number [2]: 6.5 × 10^5
- CPM Incorporated (3H-thymidine) ([2]; 2 h pulse): 30,074 ± 2,837 CPM

B3: Factor IX: bovine coagulation factor IX (protein, UniProt P00741 26-462, looked up)
Coagulation factor IX: AECTVFLDRENATKILHRPKRYNSGKLEEFVRGNLERECKEEKCSFEEAREVFENTEKTTEFWKQYVDGDQCESNPCLNGGMCKDDINSYECWCQAGFEGTNCELDATCSIKNGRCKQFCKRDTDNKVVCSCTDGYRLAEDQKSCEPAVPFPCGRVSVSHISKKLTRAETIFSNTNYENSSEAEIIWDNVTQSNQSFDEFSRVVGGEDAERGQFPWQVLLHGEIAAFCGGSIVNEKWVVTAAHCIKPGVKITVVAGEHNTEKPEPTEQKRNVIRAIPYHSYNASINKYSHDIALLELDEPLELNSYVTPICIADRDYTNIFLKFGYGYVSGWGKVFNRGRSASILQYLKVPLVDRATCLRSTKFSIYSHMFCAGYHEGGKDSCQGDSGGPHVTEVEGTSFLTGIISWGEECAMKGKYGIYTKVSRYVNWIKEKTKLT
- % relative mitogenic activity above control [1, 7]: only weakly mitogenic

B4: antistasin (protein, UniProt P15358 18-136, looked up)
Antistasin: QGPFGPGCEEAGCPEGSACNIITDRCTCSGVRCRMHCPHGFQRSRYGCEFCKCRLEPMKATCDISECPEGMMCSRLTNKCDCKIDINCRKTCPNGLKRDKLGCEYCECRPKRKLIPRLS
notes: 119-amino acid protein isolated from the salivary glands of the Mexican leech Haementeria officinalis
- Mitogenic units of EC conditioned media ([3]; EXP 1): 0.74 mitogenic units
- Mitogenic units of EC conditioned media ([3]; EXP 2): 0.42 mitogenic units
- Mitogenic units of EC conditioned media ([3]; EXP 3): 0.70 mitogenic units
- Mitogenic units of EC conditioned media ([3]; EXP 4): 0.36 mitogenic units
- Release of mitogens from endothelial cells ([3]; antistasin 0.5-10 nM): blocks the release of mitogens
- Effect on proliferation of 3T3 cells [4]: no significant effect
- Relative mitogenic activity above control ([5]; 10 nM fXa and 5 nM antistasin): about 23%
- Relative mitogenic activity above control ([5]; 10 nM fXa and 10-20 nM antistasin): about 2%
- Relative mitogenic activity above control ([5]; 10 nM fXa with 40-50 nM antistasin): near zero
- Inhibition of relative mitogenic activity of bovine factor X ([6]; 10 nM bovine factor X with 50 nM antistasin): not significantly inhibited
- Inhibition of relative mitogenic activity of protein S ([6]; protein S with 50 nM antistasin): abolished

Reference: patent publication US5385885A, “Inhibition of smooth muscle cell proliferation by antistasin and tick anticoagulant peptide” (priority 1991, dated 1995)
